Experimental data published in article PMC9712689.

How the values were obtained:
[1] = target: cross-linked RlpA-Δ32·MltF2 complex (SPR chip) (P. aeruginosa PAO1) (UniProt Q9X6V6); assay: SPR
[2] = target: RlpA-Δ32, fluorescently labeled (P. aeruginosa PAO1) (UniProt Q9X6V6); assay: MST
[3] = target: RlpA-Δ32·MltF2 complex (MST) (P. aeruginosa PAO1) (UniProt Q9X6V6); assay: MST
[4] = target: RlpA-Δ32 (P. aeruginosa PAO1) (UniProt Q9X6V6); assay: SPR
[5] = target: RlpA-SPOR (P. aeruginosa PAO1) (UniProt Q9X6V6); assay: SPR
[6] = target: RlpA-SPOR (P. aeruginosa PAO1) (UniProt Q9X6V6); assay: ITC

Row | Substance | Kd [1] | koff [1] | kon [1] | Kd [2] | Kd [3] | Kd [4] | koff [4] | kon [4] | Kd [5] | koff [5] | kon [5] | Kd [6] | stoichiometry N [6]
1 | PBP1a (from UniProt Q07806 27-822) (enzyme) | 280 nM | 0.0048 s⁻¹ | 51700 M⁻¹ s⁻¹ | – | – | – | – | – | – | – | – | – | –
2 | PBP1b (enzyme) | – | – | – | 16 nM | 57 nM | 55 nM | 0.0005 s⁻¹ | 9100 M⁻¹ s⁻¹ | – | – | – | – | –
3 | SltB3 (enzyme) | – | – | – | 92 nM | 390 nM | 140 nM | 0.00079 s⁻¹ | 5500 M⁻¹ s⁻¹ | 2140 nM | 0.00079 s⁻¹ | 370 M⁻¹ s⁻¹ | 79 nM | 1
